Assay results from PMC3474183.

Target: lymphocyte-derived soluble LIGHT (TNFSF 14) (human (endogenous in PBMC))
Assay: SEC

- stoichiometry N: 3
Substance: lymphocyte-derived soluble LIGHT (TNFSF 14) (ligand)
